# According to article PMC7474647 (Proceedings of the National Academy of Sciences of the …, 2020):
# B1: alkaline phosphatase from bovine intestinal mucosa, labeled with JF646 (enzyme, UniProt P19111 20-506, looked up)
# chain: LVPVEEEDPAFWNRQAAQALDVAKKLQPIQTAAKNVILFLGDGMGVPTVTATRILKGQMNGKLGPETPLAMDQFPYVALSKTYNVDRQVPDSAGTATAYLCGVKGNYRTIGVSAAARYNQCKTTRGNEVTSVMNRAKKAGKSVGVVTTTRVQHASPAGAYAHTVNRNWYSDADLPADAQMNGCQDIAAQLVNNMDIDVILGGGRKYMFPVGTPDPEYPDDASVNGVRKRKQNLVQAWQAKHQGAQYVWNRTALLQAADDSSVTHLMGLFEPADMKYNVQQDHTKDPTLQEMTEVALRVVSRNPRGFYLFVEGGRIDHGHHDDKAYMALTEAGMFDNAIAKANELTSELDTLILVTADHSHVFSFGGYTLRGTSIFGLAPSKALDSKSYTSILYGNGPGYALGGGSRPDVNDSTSEDPSYQQQAAVPQASETHGGEDVAVFARGPQAHLVHGVEEETFVAHIMAFAGCVEPYTDCNLPAPTTATSIPD
# modifications: JF646 dye, attached by amine-NHS chemistry (nonspecific labeling; one or two dyes per molecule seen)
# Target: the molecule itself
# Experiment: ABEL trap-based single-molecule diffusometry
protein,measurement,value
B1,stoichiometry N,2
